The values below come from FireProtDB (doi:10.1073/pnas.90.18.8367).

For this data set the following is noted: Enterobacteria phage fd; pH 7; 25 °C; GdnHCl; CD; MOPS 50 mM; NaCl 100 mM; reversible: yes; whole UniProt chain shown.

B1: DNA-Binding protein G5P wild type, P69542 (protein)
chain: MIKVEIKPSQAQFTTRSGVSRQGKPYSLNEQLCYVDLGNEYPVLVKITLDEGQPAYAPGLYTVHLSSFKVGQFGSLMIDRLRLVPAK
For B1, the unfolding free energy came to 9 kcal/mol.
